In patent US20020173049A1:
Non-standard residues stand in square brackets, D forms with d. No end group written: not given here. Ahx = NCCCCCC(=O)O

Target: E3α (rabbit)
Assay: cell-based or functional assay

Substance Phe-[Ahx]-Cys has a TCA-soluble 125I (cpm) from [125I]-lysozyme degradation in rabbit reticulocyte lysate at the 2 hour time point; no treatment 12,475 cpm of 3590 cpm.
